From US10704030B2, “P450-BM3 variants with improved activity” (Codexis, Inc., priority 2015, dated 2020)

B1: SEQ ID NO: 10: P450-BM3 parental backbone from the commercially available MCYP panel (MCYP-0343; Codexis) (protein)
chain: MTIKEMPQPKTFGELKNLPLLNTDKPVQALMKIADELGEIFKFEAPGCVTRYLSSQRLIKEACDESRFDKNLSQALKFARDFAGDGLATSWTHEINWKKAHNILLPSFSQQAMKGYHAMMVDIAVQLVQKWERLNADEHIEVSEDMTRLTLDTIGLCGFNYRFNSFYRDQPHPFIISMVRALDEVMNKLQRANPDDPAYDENKRQCQEDIKVMNDLVDKIIADRKARGEQSDDLLTQMLNGKDPETGEPLDDGNISYQIITFLIAGHETTSGLLSFALYFLVKNPHVLQKVAEEAARVLVDPVPSYKQVKQLKYVGMVLNEALRLWPTAPAFSLYAKEDTVLGGEYPLEKGDEVMVLIPQLHRDKTIWGDDVEEFRPERFENPSAIPQHAFKPFGNGQRACIGQQFALHEATLVLGMMLKHFDFEDHTNYELDIKETLTLKPEGFVVKAKSKKIPLGGIPSPSTEQSAKKVRKKAENAHNTPLLVLYGSNMGTAEGTARDLADIAMSKGFAPQVATLDSHAGNLPREGAVLIVTASYNGHPPDNAKQFVDWLDQASADEVKGVRYSVFGCGDKNWATTYQKVPAFIDETLAAKGAENIADRGEADASDDFEGTYEEWREHMWSDVAAYFNLDIENSEDNKSTLSLQFVDSAADMPLAKMHGAFSTNVVASKELQQPGSARSTRHLEIELPKEASYQEGDHLGVIPRNYEGIVNRVTARFGLDASQQIRLEAEEEKLAHLPLAKTVSVEELLQYVELQDPVTRTQLRAMAAKTVCPPHKVELEALLEKQAYKEQVLAKRLTMLELLEKYPACEMKFSEFIALLPSIRPRYYSISSSPRVDEKQASITVSVVSGEAWSGYGEYKGIASNYLAELQEGDTITCFISTPQSEFTLPKDPETPLIMVGPGTGVAPFRGFVQARKQLKEQGQSLGEAHLYFGCRSPHEDYLYQEELENAQSEGIITLHTAFSRMPNQPKTYVQHVMEQDGKKLIELLDQGAHFYICGDGSQMAPAVEATLMKSYADVHQVSEADARLWLQQLEEKGRYAKDVWAG
modifications: P450_BM3
B2: Variant 10: P450-BM3 variant of SEQ ID NO: 8: K32R; Y52F; K95P; Q111R; G115R; I176V; L216Y; D232H; P347T; E349T; M491A; T577A; E619D; D722S (protein)
chain: MTIKEMPQPKTFGELKNLPLLNTDKPVQALMRIADELGEIFKFEAPGRVTRFLSSQRLIKEACDESRFDKNLSQALKFARDFAGDGLFTSWTHEPNWKKAHNILLPSFSQRAMKRYHAMMVDIAVQLVQKWERLNADEYIEVPEDMTRLTLDTIGLCGFNYRFNSFYRDQPHPFIVSMIRALDEVMNKLQRANPDDPAYDENKRQFQEDIKVMNDYVDKIIADRKASGEQSHDLLTQMLNGKDPETGEPLDDGNISYQIITFLIAGHETTSGLLSFALYFLVKNPHVLQKVAEEATRVLVDPVPSYKQVKQLKYVGMVLNEALRLWPTAPAFSLYAKEDTVLGGEYTLTKGDEVMVLIPQLHRDKTIWGDDVEEFRPERFENPSAIPQHAFKPFGNGQRACIGQQFALHEATLVLGMMLKHFDFEDHTNYELDIKETLTLKPEGFVVKAKSKKIPLGGIPSPSTEQSAKKVRKKAENAHNTPLLVLYGSNAGTAEGTARDLADIAMSKGFAPQVATLDSHAGNLPREGAVLIVTASYNGHPPDNAKQFVDWLDQASADEVKGVRYSVFGCGDKNWAATYQKVPAFIDETLAAKGAENIADRGEADASDDFEGTYEEWRDHMWSDVAAYFNLDIENSEDNKSTLSLQFVDSAADMPLAKMHGAFSTNVVASKELQQPGSARSTRHLEIELPKEASYQEGDHLGVIPRNYEGIVNRVTARFGLSASQQIRLEAEEEKLAHLPLAKTVSVEELLQYVELQDPVTRTQLRAMAAKTVCPPHKVELEALLEKQAYKEQVLAKRLTMLELLEKYPACEMKFSEFIALLPSIRPRYYSISSSPRVDEKQASITVSVVSGEAWSGYGEYKGIASNYLAELQEGDTITCFISTPQSEFTLPKDPETPLIMVGPGTGVAPFRGFVQARKQLKEQGQSLGEAHLYFGCRSPHEDYLYQEELENAQSEGIITLHTAFSRMPNQPKTYVQHVMEQDGKKLIELLDQGAHFYICGDGSQMAPAVEATLMKSYADVHQVSEADARLWLQQLEEKGRYAKDVWAG
modifications: P450_BM3
notes: Y52F; K95P; Q111R; G115R; I176V; L216Y; D232H; P347T; E349T; M491A; T577A; E619D; D722S
B3: Variant 11: P450-BM3 variant of SEQ ID NO: 8: K95P; Q111R; G115R; I176V; L216Y; E349T; M491A; T577A; E619D; D722S (protein)
chain: MTIKEMPQPKTFGELKNLPLLNTDKPVQALMKIADELGEIFKFEAPGRVTRYLSSQRLIKEACDESRFDKNLSQALKFARDFAGDGLFTSWTHEPNWKKAHNILLPSFSQRAMKRYHAMMVDIAVQLVQKWERLNADEYIEVPEDMTRLTLDTIGLCGFNYRFNSFYRDQPHPFIVSMIRALDEVMNKLQRANPDDPAYDENKRQFQEDIKVMNDYVDKIIADRKASGEQSDDLLTQMLNGKDPETGEPLDDGNISYQIITFLIAGHETTSGLLSFALYFLVKNPHVLQKVAEEATRVLVDPVPSYKQVKQLKYVGMVLNEALRLWPTAPAFSLYAKEDTVLGGEYPLTKGDEVMVLIPQLHRDKTIWGDDVEEFRPERFENPSAIPQHAFKPFGNGQRACIGQQFALHEATLVLGMMLKHFDFEDHTNYELDIKETLTLKPEGFVVKAKSKKIPLGGIPSPSTEQSAKKVRKKAENAHNTPLLVLYGSNAGTAEGTARDLADIAMSKGFAPQVATLDSHAGNLPREGAVLIVTASYNGHPPDNAKQFVDWLDQASADEVKGVRYSVFGCGDKNWAATYQKVPAFIDETLAAKGAENIADRGEADASDDFEGTYEEWRDHMWSDVAAYFNLDIENSEDNKSTLSLQFVDSAADMPLAKMHGAFSTNVVASKELQQPGSARSTRHLEIELPKEASYQEGDHLGVIPRNYEGIVNRVTARFGLSASQQIRLEAEEEKLAHLPLAKTVSVEELLQYVELQDPVTRTQLRAMAAKTVCPPHKVELEALLEKQAYKEQVLAKRLTMLELLEKYPACEMKFSEFIALLPSIRPRYYSISSSPRVDEKQASITVSVVSGEAWSGYGEYKGIASNYLAELQEGDTITCFISTPQSEFTLPKDPETPLIMVGPGTGVAPFRGFVQARKQLKEQGQSLGEAHLYFGCRSPHEDYLYQEELENAQSEGIITLHTAFSRMPNQPKTYVQHVMEQDGKKLIELLDQGAHFYICGDGSQMAPAVEATLMKSYADVHQVSEADARLWLQQLEEKGRYAKDVWAG
modifications: P450_BM3
notes: Q111R; G115R; I176V; L216Y; E349T; M491A; T577A; E619D; D722S

Assays:
Assay type in all cases: biochemical
[1] = Validation of generalist properties: oxidation of diclofenac by lyophilized P450-BM3 variant, UPLC-MS; settings: [Diclofenac] = 1 mM; for TON: TON = [substrate]*% conversion/[P450]; for FIOPC (B02): fold improvement over parent MCYP-P1.2-B02
Method: (§1) For the production of lyophilized protein powders, LB agar plates supplemented with chloramphenicol (30 μg/mL) were streaked with E. coli containing a desired B. megaterium P450-BM3 variant in an IPTG-inducible vector. The plates were grown at 37° C. for 16 hrs before single clones were selected to inoculate a 15 mL Falcon™ tube (Fisher) containing TB media (3 mL) supplemented with chloramphenicol (30 μg/mL). The tube was shaken at 200 rpm, 30° C., and 85% humidity for 20-24 h to grow the cultures to saturation. Then, 2.5 mL of the overnight culture was used to inoculate sterile 1 L flasks containing TB medium (250 mL) supplemented with chloramphenicol (30 μg/mL), trace element solution (as described above), and 0.05 g/L ammonium iron (III) citrate. After being shaken at 250 rpm, 30° C., and 85% humidity to an OD600 of 0.8-1.2, P450 expression was induced by addition of IPTG (500 uM) and the heme precursor 5-aminolevulinic acid (5-ALA) to a final concentration of 500 uM. The cultures were grown for additional 20-24 hours and centrifuged in pre-weighed 250 mL centrifuge bottles for 20 minutes at 4000 rpm, 4° C. The supernatants were discarded, and the centrifuge bottles containing cell pellets were weighed. The pellets were resuspended in 50 mM potassium phosphate buffer with 2 mM DTT, pH 8.0 (5 mL of buffer per gram of cell pellet). The cells were lysed using a microfluidizer homogenizer, and the suspensions of cells and lysate were collected in sterile 50 mL centrifuge tubes. The samples were centrifuged for 30 minutes at 10,000 rpm, 4° C. The clarified lysate was collected into a plastic petri plate and frozen at −80° C. prior to lyophilization. The enzyme-containing lysates were lyophilized using standard methods known in the art.
(§2) Enzyme stocks (˜12 μM) were prepared by dissolving ˜20 mg of each enzyme in 100 mM potassium phosphate buffer, pH 8.0 (1 mL). The concentration of each enzyme stock solution was determined by the UV-visible absorption spectroscopy (after centrifugation to remove particulates) and diluted to standardize at 12 μM heme protein. Substrate solutions were prepared by dissolving each substrate in DMSO to reach a final concentration of 20 mM or 40 mM. Reaction mix (235 μL) followed by enzyme solution (50 μL) was added to the plates. The substrate stock solution was added to the enzyme solutions (15 μL at the two different concentrations). Each reaction contained 100 mM potassium phosphate, 1.0 mM NADP+, 25 mM glucose, 0.5 mg/mL glucose dehydrogenase, 5% DMSO and substrate at 1 or 2 mM. Loratadine, imatinib, and gefitinib (See, FIG. 1) were selected as substrates in addition to diclofenac to validate improved BM3 variants. The reactions were shaken at 450 rpm at 30° C. over 24 hours. All reactions were diluted with acetonitrile to a final concentration of 0.5 mM substrate. The plates were then centrifuged at 3,000 g for 1 hour at 20° C. The supernatant was diluted 1:1 with acetonitrile, filtered using a 0.4 micron filter, and analyzed by UPLC-MS.
(§3) For UPLC-MS analysis, the quenched and filtered reactions were transferred to 96-well HTP plates for analysis by UPLC on a Waters Acquity H-class system equipped with an autosampler. 1 uL of quenched sample was injected onto an Acquity UPLC HSS T3 column, 100 Å, (1.8 um; 2.1×100 mm). The column was eluted at a constant flow rate of 0.6 mL/min; conditions with solvent A (0.05% trifluoroacetic acid v/v, in H2O) and solvent B (0.05% trifluoroacetic acid v/v, in acetonitrile) used to elute the products of the reaction were: 0-2 min, A/B 95:5; 2-2.9 min, A/B 5:95; 2.9-3 min, A/B 95:5; 3-3.5 min, A/B 95:5. Column eluent was monitored by PDA (200-600 nm) prior to MS analysis in positive ESI mode (desolvation temperature 350° C., 3.25 kV spray voltage, cone voltage 25V). The column eluent was diverted to waste for the first 0.7 minutes of the run. For the remainder of the LC run, both MS (m/z 95-600 scan range) and MS/MS were collected. […]

[2] = Validation of generalist properties: oxidation of loratadine by lyophilized P450-BM3 variant, UPLC-MS; settings: [Loratadine] = 1 mM; for TON: TON = [substrate]*% conversion/[P450]; for FIOPC (B02): fold improvement over parent MCYP-P1.2-B02
Method: as §1, §2, §3

[3] = Validation of generalist properties: oxidation of imatinib by lyophilized P450-BM3 variant, UPLC-MS; settings: [Imatinib] = 1 mM; for TON: TON = [substrate]*% conversion/[P450]; for FIOPC (B02): fold improvement over parent MCYP-P1.2-B02
Method: as §1, §2, §3

[4] = Validation of generalist properties: oxidation of gefitinib by lyophilized P450-BM3 variant, UPLC-MS; settings: [Gefitinib] = 1 mM; for TON: TON = [substrate]*% conversion/[P450]; for FIOPC (B02): fold improvement over parent MCYP-P1.2-B02
Method: as §1, §2, §3

Molecule	% Conv. [1]	TON [1]	% Conv. [2]	TON [2]	% Conv. [3]	TON [3]	% Conv. [4]	TON [4]	FIOPC (B02) [1]	FIOPC (B02) [2]	FIOPC (B02) [3]	FIOPC (B02) [4]
B1	++++ (15.01-20.00)	‡‡‡‡ (10000-50000)	++++ (15.01-20.00)	‡‡‡‡ (10000-50000)	++ (5.01-10.00)	‡‡ (1001-5000)	++ (5.01-10.00)	‡‡ (1001-5000)	–	–	–	–
B2	+++ (10.01-15.00)	‡‡‡ (5001-10000)	++ (5.01-10.00)	‡‡ (1001-5000)	++++ (15.01-20.00)	‡‡‡‡ (10000-50000)	++ (5.01-10.00)	‡‡ (1001-5000)	* (0.0-3.0)	* (0.0-3.0)	** (3.01-5.0)	**** (10.01-15.00)
B3	++++ (15.01-20.00)	‡‡‡ (5001-10000)	+++ (10.01-15.00)	‡‡‡ (5001-10000)	++++ (15.01-20.00)	‡‡‡‡ (10000-50000)	+ (0-5.00)	‡ (0-1000)	* (0.0-3.0)	* (0.0-3.0)	* (0.0-3.0)	* (0.0-3.0)
